Laboratory results reported in US20020146777A1, “Canine parathyroid hormone 1 receptor” (priority 2000, published 2002).
“Also recorded” adds a separate entry of the source.

How the values were obtained:
[1] = target: T1, canine PTH1 receptor (Canis lupus familiaris, UniProt Q9TU31); experiment: Whole cell 125I-human PTH (1-34) competition binding to canine PTH1 transiently transfected CHO cells; conditions: canine PTH1/pCR3.1 transiently transfected CHO cells, 2 hours on ice
T1 construct: A 1868 bp DNA fragment containing the complete coding region of canine PTH1 was generated by PCR; expressed in transfected cells; host or cells: CHO-K1 cells, transient transfection with canine PTH1-pCR3.1
T1 sequence (Q9TU31 29-595): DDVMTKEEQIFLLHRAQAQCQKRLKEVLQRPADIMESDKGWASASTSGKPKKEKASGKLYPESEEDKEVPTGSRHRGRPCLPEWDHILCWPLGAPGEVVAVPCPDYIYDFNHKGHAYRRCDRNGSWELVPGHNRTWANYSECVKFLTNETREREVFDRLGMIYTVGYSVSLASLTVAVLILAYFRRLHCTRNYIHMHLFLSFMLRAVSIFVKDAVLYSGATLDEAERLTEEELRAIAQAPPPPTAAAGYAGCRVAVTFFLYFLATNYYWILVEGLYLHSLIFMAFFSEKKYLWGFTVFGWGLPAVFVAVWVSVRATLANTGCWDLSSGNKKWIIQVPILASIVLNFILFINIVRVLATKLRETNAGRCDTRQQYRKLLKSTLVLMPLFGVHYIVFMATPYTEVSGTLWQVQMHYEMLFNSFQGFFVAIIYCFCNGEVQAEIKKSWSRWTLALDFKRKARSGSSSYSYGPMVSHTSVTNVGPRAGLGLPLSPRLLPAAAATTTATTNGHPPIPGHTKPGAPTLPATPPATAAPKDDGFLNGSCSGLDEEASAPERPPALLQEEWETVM
Description: (§1) CHO-K1 cells were purchased from ATCC (Rockville, Md.) and maintained in Dulbecco's modified Eagle's medium/F12 (DMEM/F12, Life Technologies, Gaithersburg, Md.) supplemented with 10% fetal calf serum (FCS, Gemini Bio-Products, Calabasas, Calif.). CHO cells were plated in 12 and 24-well plates (Becton Dickinson, Franklin Lakes, N.J.) at 1.6×10^6 cells/plate in DMEM/F12 supplemented with 10% FCS. 24 hours later, each plate of cells was transfected with 10 μg of the canine PTH1-pCR3.1 expression plasmid using Lipofectamine reagent (Life Technologies). Total volume of DNA-lipofectamine mix was 500 μl/well and 250 μl/well in the 12- and 24-well plates, respectively. After 5 hours, an equal volume of media supplemented with 20% FCS was added to each well and after 24 hours, the media was replaced with growth media. The cells were then allowed to grow for an additional 24 hours, at which time the cells in the 24-well plates were used in the PTH binding assay and the cells in the 12-well plates were used to determine receptor activation by measuring cAMP.
(§2) ^125I-human PTH 1-34 amide (2000 Ci/mmol) was purchased from Amersham (Arlington Heights, Ill.). Human PTH 1-34 and human PTHrP 1-34 were purchased from Peninsula Laboratories (San Carlos, Calif.). Canine PTH (1-34) and PTHrP (1-34) (Rosol, 1995) were custom synthesized by Princeton BioMolecules (Columbus, Ohio). Human aldosterone secretion inhibitory factor (1-35), used as a similarly sized non-specific peptide, was purchased from Sigma.
Canine PTH1 transiently transfected CHO cells in 24-well plates were subjected to whole cell human ^125I-PTH (1-34) competition binding. Culture media was removed, cell monolayers washed once each with ice-cold Dulbecco's phosphate buffered saline (Life Technologies) and ice-cold assay buffer (AB; 50 mM Tris-HCl, 100 mM NaCl, 2 mM CaCl2, 5 mM KCl, 0.5% heat inactivated FCS (Life Technologies), and 5% heat-inactivated horse serum (Life Technologies), pH 7.7). Subsequent to adding 225 μl of AB to each well, 25 μl of 10x peptide (10^−4- […]) in AB containing 800 cpms/μl of ^125I-human PTH (1-34) was added to each of three wells. Plates were incubated for 2 hours on ice, binding mix removed by aspiration, washed 2x with ice-cold assay AB, cells solubilized in 1% SDS and total bound counts determined. Percent bound ^125I-PTH (1-34) was calculated using the following equation: [formula]

[2] = target: T1, canine PTH1 receptor; experiment: Intracellular cAMP accumulation in CHO cells transiently transfected with canine PTH1; type: cell-based; conditions: peptide 10^-7 M, 15 minutes at 37° C.
Description: as §1, §2
To measure stimulation of cAMP production, cells transiently transfected with canine PTH1 were rinsed once with test medium (serum-free DMEM/F12 containing 0.2 mM 3-isobutyl-1-methylxanthine (IBMX; Calbiochem, La Jolla, Calif.)), then preincubated with 1 ml/well test medium for 10 minutes at 37° C. This medium was removed and cells were incubated with test medium containing the indicated peptides (10^−7 M) for 15 minutes at 37° C. […] Upon thawing cAMP was measured using a commercially available ELISA kit (Cayman Chemical, Ann Arbor, Mich.).

| Substance | binding to canine PTH1 (displacement of 125I-hPTH (1-34)) [1] | binding to canine PTH1 (displacement of 125I-hPTH (1-34)) ([1]; listed as canine PTH) | intracellular cAMP accumulation (PTH1 activation) [2] | binding to canine PTH1 (displacement of 125I-hPTH (1-34)) ([1]; listed as canine PTHrP) | binding to canine PTH1 (displacement of 125I-hPTH (1-34)) ([1]; listed as canine/human parathyroid hormone related peptide (PTHrP) (1-34)) | binding to canine PTH1 (displacement of 125I-hPTH (1-34)) ([1]; listed as Human PTH) |
| --- | --- | --- | --- | --- | --- | --- |
| canine PTH (1-34): Canine parathyroid hormone fragment 1-34, custom synthesized by Princeton BioMolecules (SVSEIQFMHNLGKHLSSMERVEWLRKKLQDVHNF) | specific displacement; also recorded: high affinity binding | specific binding | increase in intracellular cAMP | – | – | – |
| canine/human PTHrP (1-34): Canine/human parathyroid hormone related peptide fragment 1-34 | high affinity binding | – | increase in intracellular cAMP | specific binding | specific displacement | – |
| human PTH (1-34): Human parathyroid hormone fragment 1-34, purchased from Peninsula Laboratories | specific displacement; also recorded: high affinity binding | – | increase in intracellular cAMP | – | – | specific binding |
